Reference: patent publication US20050208021

How the values were obtained:
[1] = test system: T1, PhiC31 integrase wild type (Bacteriophage Phi-C31); assay: cell_activity
T1 sequence: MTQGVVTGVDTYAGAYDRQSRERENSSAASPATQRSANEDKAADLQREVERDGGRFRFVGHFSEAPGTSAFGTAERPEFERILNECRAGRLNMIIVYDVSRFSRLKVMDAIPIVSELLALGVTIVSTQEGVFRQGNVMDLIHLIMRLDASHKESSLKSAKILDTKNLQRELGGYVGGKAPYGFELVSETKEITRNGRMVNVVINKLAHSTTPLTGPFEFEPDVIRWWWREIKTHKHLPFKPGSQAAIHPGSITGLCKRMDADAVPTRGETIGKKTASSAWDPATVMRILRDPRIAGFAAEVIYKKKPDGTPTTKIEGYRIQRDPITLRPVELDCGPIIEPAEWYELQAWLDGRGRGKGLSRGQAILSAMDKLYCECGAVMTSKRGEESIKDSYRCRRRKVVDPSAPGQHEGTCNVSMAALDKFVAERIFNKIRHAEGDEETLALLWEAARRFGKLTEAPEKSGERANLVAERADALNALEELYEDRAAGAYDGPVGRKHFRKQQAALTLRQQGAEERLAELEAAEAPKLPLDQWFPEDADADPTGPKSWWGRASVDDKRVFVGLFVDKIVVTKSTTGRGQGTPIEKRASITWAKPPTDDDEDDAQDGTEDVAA

[2] = test system: T2, PhiC31 integrase mutant 1C1 (Bacteriophage Phi-C31); assay: cell_activity; conditions: attB donor integration into 293 genome
T2 sequence: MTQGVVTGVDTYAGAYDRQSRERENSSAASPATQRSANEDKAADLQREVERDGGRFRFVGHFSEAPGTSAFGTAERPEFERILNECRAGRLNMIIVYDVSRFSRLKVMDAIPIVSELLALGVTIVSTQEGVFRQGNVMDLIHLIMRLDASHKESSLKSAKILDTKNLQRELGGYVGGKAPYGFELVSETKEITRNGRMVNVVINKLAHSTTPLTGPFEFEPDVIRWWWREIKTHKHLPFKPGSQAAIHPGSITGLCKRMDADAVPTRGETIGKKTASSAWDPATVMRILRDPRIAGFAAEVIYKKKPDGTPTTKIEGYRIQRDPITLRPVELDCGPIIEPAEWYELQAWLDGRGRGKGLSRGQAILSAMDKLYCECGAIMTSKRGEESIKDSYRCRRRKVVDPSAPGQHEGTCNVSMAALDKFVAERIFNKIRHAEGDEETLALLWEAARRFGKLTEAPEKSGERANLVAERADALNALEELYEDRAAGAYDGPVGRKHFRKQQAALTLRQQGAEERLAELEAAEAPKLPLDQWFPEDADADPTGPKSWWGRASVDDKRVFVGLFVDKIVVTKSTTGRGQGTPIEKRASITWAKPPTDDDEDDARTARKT

Substance PhiC31 attB/attP in pBCPB+ has an activity (% white colonies) ([1]; Drosophila S2 cells, +/-11.7, background 1.7) of 47.8.

With “CGATGTAGGTCACGGTCTCGAAGCCGCGGTGCGGGTGCCAGGGCGTGCCCTTGGGCTCCCCGGGCGCGTACTCCACCTCACCCATCTGGTCCATCATGATGAACGGGTCGAGGTGGCGGTAGTTGATCCCGGCGAACGCGCGGCGCACCGGGAAGCCCTCGCCCTCGAAACCGCTGGGCGCGGTGGTCACGGTGAGCACGGGACGTGCGACGGCGTCGGCGGGTGCGGATACGCGGGGCAGCGTCAGCGGGTTCTCGACGGTCACGGCGGGCATGTCGA (double strand) [PhiC31 attB full length]” the activity (fold over background colonies) [2] was over 10.

mouse pseudo attP mpsL1 was tested, and the activity (% haploid genomes integrated) ([1]; mouse liver, partner attB, qPCR, +/-0.89) was 1.8.
